Results taken from patent publication US20220362330A1, “Compositions and Methods for Increasing Epithelial Barrier Function” (The Board of Trustees of the Leland Stanford Junior …, priority 2019, published 2022).
“Also recorded” adds a separate entry of the source. Square brackets hold non-standard residues; d marks the D form. Ends that are not written are not given here. Ahx = NCCCCCC(=O)O

B1: Fc-EFNA3: Recombinant Mouse Ephrin-A3 Fc Chimera Protein, SEQ ID NO: 13 (protein)
chain: QGPGGALGNRHAVYWNSSNQHLRREGYTVQVNVNDYLDIYCPHYNSSGPGGGAEQYVLYMVNLSGYRTCNASQGSKRWECNRQHASHSPIKFSEKFQRYSAFSLGYEFHAGQEYYYISTPTHNLHWKCLRMKVFVCCASTSHSGEKPVPTLPQFTMGPNVKINVLEDFEGENPQVPKLEKSISGIEGRMDPAKTTAPSVYPLAPVCGDTTGSSVTLGCLVKGYFPEPVTLTWNSGSLSSGVHTFPAVLQSDLYTLSSSVTVTSSTWPSQSITCNVAHPASSTKVDKKIEPRGPTIKPCPPCKCPAPNLLGGPSVFIFPPKIKDVLMISLSPIVTCVVVDVSEDDPDVQISWFVNNVEVHTAQTQTHREDYNSTLRVVSALPIQHQDWMSGKEFKCKVNNKDLPAPIERTISKPKGSVRAPQVYVLPPPEEEMTKKQVTLTCMVTDFMPEDIYVEWTNNGKTELNYKNTEPVLDSDGSYFMYSKLRVEKKNWVERNSYSCSVVHEGLHNHHTTKSFSRTPGK

Legend:
[1] = system: vaginal epithelium; assay: Vaginal epithelial integrity and thickness in OVX mice, histology; type: in vivo; conditions: ivag for 9 consecutive days, peptide dimer 10^−4 μM, Fc-EFNA3 1 μM
Procedure: Mice in estrus and OVX mice were used in these experiments. OVX mice received PBS alone, EFNA3-derived peptide dimer (10^−4 μM) or recombinant mouse Fc-EFNA3 (1 μM) via atraumatic intravaginal administration for 9 consecutive days. All mice were euthanized, and vaginal tissue processed for histological evaluation and measurement of vaginal epithelial thickness.
8-10 weeks female C57BL/6J mice were anesthetized. Dorsal skin was shaved and cleaned with 70% ethanol followed by povidone-iodine. Following appropriate sterile technique, a single dorsal skin incision was performed, followed by dissection until ovarian fat pads were identified and ovaries removed. Peritoneal and abdominal walls were sutured, and mice recovered from anesthesia. After confirmation of suppression of estrous cycle, mice were used in experiments.

[2] = system: desmoglein-1a (DSG1a); assay: qRT-PCR of Dsg1a gene expression in vaginal tissue; type: in vivo, mice
Procedure: (§1) To define progestin-mediated changes in mucosal permeability, vaginal tissue from mice in estrus, diestrus, or after DMPA or LNG treatment was used to measure expression of the desmosomal cadherins desmoglein-1a (DSG1a) and desmocollin-1 (DSC1).
(§2) Human ectocervical and murine vaginal tissues were immediately immersed in 1 mL of RNAlater® (Qiagen), stored for 24 h at 4° C., and stored long-term at −80° C. RNA isolated using the RNeasy Lipid Tissue Kit (Qiagen) using manufacturer's instructions was re-suspended in nuclease-free water and quantified using a NanoDrop spectrophotometer (Thermo Scientific). The following mouse primers were utilized: desmocollin 1 (Mm00496525_ml), desmoglein-1α (Mm00809994_s1), ephrinA3 (Mm01212723_g1) and pyruvate carboxylase (Mm00500992_ml) as housekeeping reference gene (all from Thermo Scientific). These human primers were used: desmoglein-1 (Hs00355084_m1) and glucose-6-phosphate isomerase (Hs00976711_m1) as a housekeeping reference gene. To define relative gene expression, 100 ng of RNA was mixed with TaqMan® RNA-to-Ct™ 1-Step Kit and adequate primer (final volume of 10 μL/well) using manufacturer's instructions (Life Technologies). qRT-PCR was performed using a Quantstudio3 Thermal Cycler, and data analyzed via Quanstudio Software (Applied Biosystems).

[3] = system: VK2/E6E7 vaginal cells; assay: DSG1 gene expression in human vaginal epithelial cell line; type: cell-based; conditions: 24 h, qRT-PCR
Procedure: VK2/E6E7 vaginal cells at 70-90% confluency were treated with indicated concentrations of EFNA3-derived peptide dimer for 24 h. Cells were harvested for RNA isolation and determination of relative DSG1 gene expression via qRT-PCR and ΔΔCt analysis.
VK2/E6E7 (ATCC® CRL-2616™) vaginal epithelial cell line was grown using ReproLife™ Reproductive Medium Complete Kit for up to 4 passages. For experiments, 10^5 cells were plated in 12-well plates. Cells reached 70-90% confluency after 24 hand were stimulated with EFNA3-like peptide dimer or vehicle. Cells were incubated for 24 h with indicated treatments. RNA was extracted and 500 ng of RNA used to generate cDNA using the SuperScript™ IV VILO™ Master Mix. Relative DSG1 (Hs00355084_m1) gene expression was calculated by normalization with the housekeeping gene glucose-6-phosphate isomerase (Hs00976711_m1) via qRT-PCR.

[4] = system: genital mucosal barrier; assay: Murine tissue permeability assay, low molecular weight fluorescent molecules given intravaginally; type: in vivo, mice
Procedure: Effects of progestins on genital mucosal barrier permeability were evaluated by intravaginally (ivag) administering 457 Da and 70 KDa-sized fluorescent molecules to mice in estrus or diestrus-stage or after DMPA or LNG treatment. Mice were grouped as follows: untreated in estrus, untreated in diestrus, DMPA treated, or LNG treated. The mice were intravaginally administered a PBS solution containing Lucifer yellow (457 Da) and Texas-Red-conjugated dextran (70 KDa). Animals were euthanized 45 minutes later to assess vaginal tissue penetration of these molecules by confocal microscopy. […] Mucosal permeability was increased moderately by diestrus, but dramatically by DMPA or LNG. Conversely, permeability increases were negligible in estrus-stage mice and mice treated with MePRDL or DMPA and RU486. This indicates exogenous progestins increase genital mucosal permeability.
To evaluate mucosal permeability to low molecular weight molecules, indicated groups of mice were sedated, and 10 μL of a PBS solution containing 62.5 μg of dextran Texas-Red® (DR) (MW=70,000 Da) and 50 μg of Lucifer yellow CH, lithium salt (LY) (MW=457.2 Da) (both from Life Technologies) administered intravaginally. 45 minutes later, mice were euthanized, and excised vaginal tissue fixed in formaldehyde. Fixed tissue was embedded in agarose, and 200-300 μm specimens were sectioned with a vibratome. After counterstaining with 4,6-diamidino-2-phenylindole (DAPI), confocal microscopy images were acquired by sequential scanning to prevent fluorescence crossover.

[5] = system: DSG1 protein; assay: DSG1 protein levels in vaginal tissue, immunofluorescent staining and confocal microscopy; type: in vivo, mice
Procedure: Excised mouse vaginas were formaldehyde fixed and paraffin embedded (FFPE), and 10 μm sections mounted on glass slides and de-paraffinized by sequential immersion in 100% xylene, 100% ethanol, 96% ethanol, and sterile DEPC-treated water. Antigen retrieval was performed using 10 mM sodium citrate buffer (pH 6.0) containing 0.05% Tween 20 (both Sigma-Aldrich) (20 minutes at 95° C.). After 3 PBS washes, sections were incubated overnight in 10% normal goat serum (Abcam, Cambridge Mass.) at 4° C., then incubated for 1 h at ambient temperate with rabbit anti-desmoglein-1 (clone EPR6766(B)) antibody, washed and incubated for 1 h with AlexaFluor® 488-labeled goat anti-rabbit IgG (antibodies from Abcam) (all antibodies were diluted in PBS with 1% BSA and 0.05% Tween 20). Sections were stained with DAPI and evaluated for levels of DSG1 protein (defined by calculating pixel numbers per 100 μm^2) using confocal microscopy and ImageJ software.

[6] = system: desmocollin-1 (DSC1); assay: qRT-PCR of Dsc1 gene expression in vaginal tissue; type: in vivo, mice; conditions: DMPA-treated mice
Procedure: as §1, §2

[7] = system: anti-OVA IgE; assay: Mouse epicutaneous sensitization model of atopic dermatitis, serum anti-OVA IgE ELISA; type: in vivo, mice; conditions: 3 cycles, OVA + Fc-EFNA3 vs OVA alone
Procedure: Mice underwent epicutaneous sensitization with OVA alone or in combination with recombinant mouse Fc-EFNA3. After 3 sensitization cycles, animals were euthanized to obtain blood for serum isolation. Then, levels of serum anti-OVA IgE was determined via ELISA.
6-10 weeks old Balb/cJ mice were anesthetized. Dorsal skin was shaved, and skin tape-stripped 6 times. PBS alone, 100 μg of ovalbumin (OVA) in PBS or 100 μg OVA+recombinant mouse Fc-EFNA3 in 100 μl of PBS were added to a 1×1 cm sterile gauze that was applied directly to tape-stripped area of skin and covered with a transparent bio-occlusive dressing. This patch was left in place for a 1-week period and removed. This procedure was repeated twice with 2-week intervals between applications. After completing the 3rd skin sensitization, mice were euthanized and serum samples obtained. Serum levels of anti-OVA IgE were was determined using an in-house ELISA.

[8] = system: HSV-2; assay: Lethal genital HSV-2 infection; type: in vivo; conditions: DMPA-treated mice; 10^4 pfu of HSV-2
Procedure: Mice were sedated with xylazine (Lloyd Laboratories, Shenandoah Iowa) and ketamine hydrochloride (JHP Pharmaceuticals, LLC Rochester Mich.), and intravaginally infected with 10^4 plaque-forming units (pfu) of WT HSV-2 333 in 10 μL of RPMI. Mouse mortality was evaluated daily for 15 days.

Molecule	vaginal epithelial integrity (epithelial thickness) [1]	potency on Dsg1a expression compared to recombinant mouse Fc-EFNA3 ([2]; DMPA-treated mice, Fc-EFNA3 at 1 μM)	Dsg1a mouse vaginal expression ([2]; DMPA-treated mice, topical/ivag in PBS, 24 hours)	expression of cell-cell adhesion molecules in genital mucosal epithelium ([2]; topical administration)	DSG1 gene expression [3]	genital mucosal barrier function / permeability to LMW fluorescent molecules ([4]; DMPA-treated mice, one ivag dose of 1.5 ug/30 uL)	genital mucosal barrier function (summary of the studies) ([4]; via increased expression of epithelial cell-cell adhesion molecules, especially DSG1)	homogeneity of DSG1 protein expression ([5]; 1.5 ug in 30 uL of PBS vs 0.5 ug in 10 uL of PBS)	dose that optimized levels of DSG1 protein ([5]; DMPA-treated mice, 24 hours after treatment)	DSG1 expression at higher doses ([5]; DMPA-treated mice, 24 hours, doses above 1 μg)	DSG1 protein expression, dose dependence ([5]; DMPA-treated mice, 24 hours, up to the 1 μg dose)	dose that optimized Dsc1 gene expression ([6]; ivag 0.25, 0.5, 1 and 2.5 μg in 10 μL, six hours after treatment)	expression of Dsc1 ([6]; ivag, select doses vs Fc-control, 6 h)	serum allergen-specific (anti-OVA) IgE levels [7]	serum allergen-specific (anti-OVA) IgE levels ([7]; listed as recombinant mouse Fc-EFNA3)	survival after genital HSV-2 infection [8]	dose that optimized Dsg1a gene expression ([2]; DMPA-treated mice, ivag 0.25, 0.5, 1 and 2.5 μg in 10 μL, six hours after treatment)	expression of Dsg1a ([2]; DMPA-treated mice, ivag, select doses vs Fc-control, 6 h)
RYSAFSLGYEFH-Ahx-K-HFEYGLSFASYR (RYSAFSLGYEFH[Ahx]KHFEYGLSFASYR; also: Ahx-Lys linked dimer) [EFNA3-derived peptide dimer, Ahx is aminohexanoic acid]	improves vaginal epithelial integrity	greater potency	promotes Dsg1a mouse vaginal expression	significantly increases	increase DSG1 expression; also recorded: promotes DSG1 expression													
B1	improves vaginal epithelial integrity					decreased genital mucosal permeability	enhanced genital mucosal barrier function	more homogeneous expression	0.5 µg	reduced at higher doses	dose-dependent increase	0.5 µg	increased expression	reduces allergen sensitization	decreased allergen-specific IgE levels	improves the survival	0.5 µg	increased expression
